Positions count from the first letter of the chain named.
B1: mAb10913 (antibody, V domains shown)
VH: EVQLVESGGGLVQPGGSLRLSCAASGFTFRNYEMNWVRQAPGKGLEWVSYITSSGSTMYYADSVKGRFTISRDNAKNSLYLQMNSLRAEDTAVYYCARDGFYYYYAMDVWGQGTTVTVSS
VL: QSVLTQPPSVSAAPGQKVTISCSGSSSNIGNNYVSWYQQLPGTAPKLLIYDNNKRPSGIPDRFSGSKSGTSATLGITGLQTGDEADYYCGTWDSSLSVGRVFGTGTKVTVLG
B2: mAb10932 (antibody, V domains shown)
VH: EVQLVESGGGLVQSGGSLRLSCAASGLTVSSNYMSWVRQAPGKGLEWVSVIYSGGSTFYSDSVKGRFTISRHNSKNTLYLQMNSLRAEDTAVYYCARARGDAFDIWGQGTMVTVSS
VL: not shown
B3: mAb10934 (antibody, V domains shown)
VH: not shown
VL: DIQMTQSPSSLSASVGDRVTITCQASQDIWNYINWYQQKPGKAPKLLIYDASNLKTGVPSRFSGSGSGTDFTFTISSLQPEDIATYYCQQHDDLPPTFGQGTKVEIKR
B4: mAb10935 (antibody, V domains shown)
VH: EVQLVESGGGLVQPGGSLRLSCAASGFTVSSNYMSWVRQAPGKGLEWVSLIYSGGSTYYADSVKGRFTISRHNSKNTLYLQMNSLRSEDTAVYYCARVPLGDYYYGMDVWGQGTTVTVSS
VL: B3 VL with W30N, N31K, I33L, K55E, H91S, D93N, P96L, Q100G
B5: mAb10936 (antibody, V domains shown)
VH: QVQLVESGGGVVQPGRSLRLSCAASGFTFRNYGMHWVRQAPGKGLEWVSVIWYDGSNRYYADSVKGRFTISRDTSKNTLYLQMNSLRAEDTAVYYCARDPPITGTTGGDAFDIWGQGTMVTVSS
VL: not shown
B6: mAb10937 (antibody, V domains shown)
VH: QITLKESGPTLVKPTQTLTLTCTFSGFSLSTNVVGVGWIRQPPGKALEWLALIYWNDDKRYSPSLKSRLTITKDTSKNQVVLTMTNMDPVDTATYYCAHGPTGDYFDYWGQGTLVTVSS
VL: not shown
B7: mAb10920 (antibody, V domains shown)
VH: QVQLVESGGGVVQPGRSLRLSCAASGFTFSYYGMHWVRQAPGKGLEWVAVIWYDGSNKFYADSVKGRFTISRDNSKNTLYLQMNSLRAEDTAVYYCAAARPGYYYGMDVWGQGTTVTVSS
VL: DIQMTQSPSSLSASVGDRVTITCRASQGISNYLAWFQQKPGKAPNSLIYAASSLQRGVPSKFSGSGSGTDFTLTISSLQPEDFATYYCQQYNSYPRTFGQGTKVEIKR
B8: mAb10921 (antibody, V domains shown)
VH: EVQLVESGGGLVQPGGSLRLSCAASGITVSSNYMSWVRQAPGKGLEWVSVIYSGGSTFYADSVKGRFTISRHNSKNTLYLQMNSLRAEDTAVYYCARERNFDAFDIWGQGTMVTVSS
VL: DIQMTQSPSSVSASVGDRVTITCRASQGISSWLAWYQQKPGKAPKLLIYAASSLQSGVPSRFSGSGSGTDFTLTISSLQPEDFATYYCQQANSFPLFTFGPGTKVDIKR
B9: mAb10923 (antibody, V domains shown)
VH: QVQLVQSGAEVKKPGASVKVSCKASGYTFINYYIHWVRQAPGQGLEWMGWINPNSGGTNYAQKFQGRVTMTRDTSISTAYMELSRLRSDDTAVYYCAIITIFGVVTWFDPWGQGTLVTVSS
VL: not shown
B10: mAb10930 (antibody, V domains shown)
VH: EVQLVESGGGLVQPGRSLRLSCAASGFTFDDYAMYWVRQAPGKGLEWVSGISWNSGSIGYADSVKGRFTISRDNAKNSLYLQMNSLRAADTALYYCAKDKDWNSRGYYYYGMDVWGQGTTVTVSS
VL: not shown
B11: mAb10938 (antibody, V domains shown)
VH: EVQLVESGGGLVQPGGSLRLSCAVSGFTVSSNYMSWVRQAPGKGLEWVSLIYSGGSTFYADSVKGRFTISRHNSKNTLYLQMNSLRAEDTAVYYCAREGGYSYDYNYWGQGTLVTVSS
VL: B3 VL with W30R, I33L, K55E, S65I, H91Y, D93N, P96I, K103R, V104L
B12: mAb10939 (antibody, V domains shown)
VH: EVQLVESGGGLVQPGGSLRLSCAASGLTVSSNYMNWVRQVPGKGLEWVSVIYSGGSKFYVDSVKGRFTISRHNSKNTLYLQMNSLRPEDTAVYYCTRDAQYYGMDVWGQGTTVTVSS
VL: DIQMTQSPSSLSASVGDRVTITCRASQSISTYLHWYQQKPGEAPKLLIYAASSLQSGVPSRFSGSGSGTDFTLTISSLQPEDFATYYCQQSYSTPPEIFGQGTKLEIKR
B13: mAb10982 (antibody, V domains shown)
VH: EVQLVESGGGLVQPGGSLRLSCAASGLTVSSNYMSWVRQAPGKGLEWVSVIYSGGTTYYADSVKGRFTISRHNSKNTLSLQMNSLRAEDTAVYYCARGEGANYYGMDVWGQGTTVTVSS
VL: QSVLTQPPSVSGAPGQRVTISCTGSSSNIGTGYDVHWYQQLPGTAPKLLIYGNSNRPSGVPDRFSGSKSGTSASLAITGLQAEDEADYYCQSYDSSLSGYVVFGGGTKLTVLG
B14: mAb10984 (antibody, V domains shown)
VH: EVQLVESGGGLVQPGGSLRLSCAASGLTVNRNYMSWVRQAPGKGLEWVSLIYSGGSTYYADSVKGRFTISRDNSKNTLYLQMNSLRLEDTAVYYCARGELGIPYGMDVWGQGTTVTVSS
VL: QSVLTQPPSVSAAPGQKVTISCSGSSSNIGNNYVSWYQQLPGTAPKLLIYDNNKRPSGIPDRFSGSKSGTSATLGITGLQTGDEADYYCGTWDSSLSAGVFGGGTKLTVLG
B15: mAb10985 (antibody, V domains shown)
VH: EVQLVESGGGLVQPGRSLRLSCAASGFTFDDYAMHWVRQAPGKGLEWVSGISWNRGSIGYADSVKGRFTISRDNAKNSLYLQMSSLRAEDTALYYCAKDGERWDSVVVPSARNGMDVWGQGTTVTVSS
VL: B13 VL with T31A, Y100S, V101Y, G105T, L109V
B16: mAb10986 (antibody, V domains shown)
VH: EVQLVESGGGLVQPGGSLRLSCAASEFTVSSNYMSWVRQAPGKGLEWVSVIYSGGSTFYADSVKGRFTISRDNSKNTLYLQMNSLRAEDTAVYYCARALPYGDLHFDYWGQGTLVTVSS
VL: B13 VL with S54T, G99D, Y100S, V101Y, G105T, L109V
B17: mAb10989 (antibody, V domains shown)
VH: QVQLVQSGAEVKKPGASVKVSCKASGYIFTGYYMHWVRQAPGQGLEWMGWINPNSGGANYAQKFQGRVTLTRDTSITTVYMELSRLRFDDTAVYYCARGSRYDWNQNNWFDPWGQGTLVTVSS
VL: QSALTQPASVSGSPGQSITISCTGTSSDVGTYNYVSWYQQHPGKAPKLMIFDVSNRPSGVSDRFSGSKSGNTASLTISGLQAEDEADYYCSSFTTSSTVVFGGGTKLTVLG
B18: mAb10971 (antibody, V domains shown)
VH: EVQLVESGGGLIQPGGSLRLSCAASGVTVSSNYMSWVRQAPGKGLEWVSVIYSGGSTFYSDSVKGRFSISRDNSKNTLYLQMNSLRAEDTAVYYCARDLYYYGMDVWGQGTTVTVSS
VL: DIQLTQSPSFLSASVGDRVTITCRASQGISTYLAWYQQKPGKAPKLLIYAASTLQSGVPSRFSGSGSGTEFTLTISSLQPEDFATYYCQQLDSYPGLTFGGGTKVEIKR
B19: mAb10964 (antibody, V domains shown)
VH: QVQLQESGPGLVKPSETLSLTCTVSGGSINNYYWIWIRQPPGKGLEWIGYIYHSGSTNYNPSLKSRVTISVDTSKNQFSLKVSSVTAADTAVYYCANMVRGVYEDDYWGQGTLVTVSS
VL: DIQMTQSPSSLSASVGDRVTITCRASQSISNYLNWYQQKPGKAPKLLIFAASSLRSGVPSRFSGSGSGTDFTLTISSLHPEDFATYYCQQNYNTPLTFGPGTKVDIKR
B20: mAb10966 (antibody, V domains shown)
VH: EVQLVESGGGLVQPGGSLRLSCAASGLTVSSNYMSWVRQAPGKGLEWVSVIYSGGSTFYADSVKGRFTISRDNSKNTLYLQMNSLRPEDTAVYYCAREGRIAATGYGMDVWGQGTTVTVSS
VL: not shown
B21: mAb10967 (antibody, V domains shown)
VH: EVQLVESGGGLVQPGGSLRLSCAASGFTVSSNYMSWVRQAPGKGLEWVSVIYPGGSTFYADSVKGRFTISRDNSKNTLYLQMNSLRAEDTAVYYCARDQRDFAWGQGTLVTVSS
VL: B3 VL with W30S, I33L, K55E, S77G, H91Y, D93N, K103R, V104L
B22: mAb10954 (antibody, V domains shown)
VH: EVQLVESGGGLVQPGGSLRLSCAASGITVSSNYMSWVRQAPGKGLEWVSLIYSGGSTYYADSVKGRFTISRDNSKNTLYLQMNSLRVEDTAVYYCARDHGMAAAGYNYWGQGTLVTVSS
VL: B3 VL with W30N, N31K, I33L, K55E, S76N, I83F, Y87F, H91Y, D93N, T97A
B23: mAb10955 (antibody, V domains shown)
VH: EVQLVESGGGLVQPGGSLRVSCAASGFTVSRNYMSWVRQAPGKGLEWVSVIYSGGSTFYADSVKGRFTISRDNSKNTLYLQMNSLRAEDTAIYYCARYIPRFDPWGQGTLVTVSS
VL: B3 VL with W30S, I33L, Y36F, K42R, K55E, H91Y, D93N, P96I, K103R, V104L

Each binder was assayed against SARS-COV-2 RBD extracellular domain expressed with a C-terminal mouse IgG2a (SARS-CoV-2).

Row | Binder | Kd | koff | kon | t½
1 | B1 | 0.244 nM | 0.000152 s⁻¹ | 623000 M⁻¹ s⁻¹ | 1.27 h
2 | B2 | ≤ 0.0413 nM | ≤ 1e-05 s⁻¹ | 242000 M⁻¹ s⁻¹ | ≥ 19.2 h
3 | B3 | 0.0832 nM |  |  | 1.64 h
4 | B4 | ≤ 0.0261 nM | ≤ 1e-05 s⁻¹ | 383000 M⁻¹ s⁻¹ | ≥ 19.2 h
5 | B5 | ≤ 0.0153 nM | ≤ 1e-05 s⁻¹ | 652000 M⁻¹ s⁻¹ | ≥ 19.2 h
6 | B6 | 0.114 nM | 7.28e-05 s⁻¹ | 639000 M⁻¹ s⁻¹ | 2.64 h
7 | B7 | 0.416 nM |  |  | 0.658 h
8 | B8 | ≤ 0.0375 nM | ≤ 1e-05 s⁻¹ |  | ≥ 19.2 h
9 | B9 | 0.0435 nM | 2.83e-05 s⁻¹ | 651000 M⁻¹ s⁻¹ | 6.79 h
10 | B10 | ≤ 0.0431 nM | ≤ 1e-05 s⁻¹ | 232000 M⁻¹ s⁻¹ | ≥ 19.2 h
11 | B11 | ≤ 0.0322 nM |  |  | ≥ 19.2 h
12 | B12 | 0.0387 nM | 1.15e-05 s⁻¹ | 299000 M⁻¹ s⁻¹ | 16.7 h
13 | B13 | 0.0544 nM | 1.69e-05 s⁻¹ | 310000 M⁻¹ s⁻¹ | 11.4 h
14 | B14 | ≤ 0.0249 nM |  |  | ≥ 19.2 h
15 | B15 | 0.0117 nM |  |  | 15.2 h
16 | B16 | ≤ 0.0158 nM |  |  | ≥ 19.2 h
17 | B17 |  |  |  | 2.07 h
18 | B18 | ≤ 0.0253 nM | ≤ 1e-05 s⁻¹ | 395000 M⁻¹ s⁻¹ | ≥ 19.2 h
19 | B19 | ≤ 0.007 nM |  |  | ≥ 19.2 h
20 | B20 | ≤ 0.0249 nM |  |  | ≥ 19.2 h
21 | B21 | ≤ 0.0251 nM |  |  | ≥ 19.2 h
22 | B22 | ≤ 0.0173 nM |  |  | ≥ 19.2 h
23 | B23 | 0.0592 nM |  |  | 8.23 h
